Tested on: PGs of B. mori
Experiment: Ecdysone biosynthesis in cultured PGs (LC-MS/MS)
Format: cell-based, Bombyx mori
Method: Two strains of the silkworm B. mori were used for this study. The p50T strain was used for NGS analysis and tissue distribution analysis, and the Kinshu x Showa strain was used for other experiments. The p50T strain was reared on mulberry leaves at room temperature. The Kinshu x Showa strain was reared on an artificial diet (SilkMate PS: Nihon Nosan Kogyo) at 25°C under a 16L:8D photoperiod. The first feeding day was designated as day 0.
Dissected PGs were rinsed with Grace's insect culture medium (Gibco) and pre-cultured individually in 100 µl medium in 96-well plates (BD Falcon) at 25°C for 30 min. To evaluate the effect of extracellular Ca^2+ on ecdysone biosynthesis, lepidopteran saline and lepidopteran saline using NaCl as a replacement for CaCl2 were used. For the pharmacological analysis, the PG was pre-treated with the inhibitor for 15 min during the pre-culture period. Following this treatment, the PG was cultured in the desired conditions for the desired period (Ecdysone assay: 3 hours; cAMP assay: 30 min; and Protein phosphorylation assay: 15 min). Actinomycin D, H-89 and cycloheximide (CHX) were purchased from Sigma; Rapamycin was purchased from Santa Cruz Biotechnology; and LY294002 was purchased from Merck. H-89 was dissolved in water. The other inhibitors were dissolved in DMSO. […]
Prior to ecdysteroids extraction, the 100 µl of cultured medium was diluted with equal volume of MilliQ water. […] Quantification of ecdysteroids using LC-MS/MS was performed as previously described with some modifications. […] The separated ecdysteroids were quantified with the QTRAP5500 MS/MS system (AB SCIEX) using MRM mode. For the quantitative analysis, standard curves were generated with concentrations of 0.98–1000 ng/ml.
The effect of PDF and DH31 on ecdysone biosynthesis was evaluated in the PGs of B. mori. The PGs of V7 larvae were cultured with PDF or DH31, and the amount of ecdysone synthesized was measured using LC-MS/MS [21]. […]
Figure 3 Prothoracicotropic activities of PDF in vitro. […] Statistically significant differences were evaluated by Student's t-test (***P<0.001, **P<0.01, *P<0.05).

B1: PTTH: prothoracicotropic hormone, humoral pathway-mediated tropic hormone (protein, UniProt P17219 116-224, looked up)
Prothoracicotropic hormone: GNIQVENQAIPDPPCTCKYKKEIEDLGENSVPRFIETRNCNKTQQPTCRPPYICKESLYSITILKRRETKSQESLEIPNELKYRWVAESHPVSVACLCTRDYQLRYNNN
modifications: Prothoracicotropic hormone
ecdysone biosynthesis without extracellular Ca2+ (Ca2+-free lepidopteran saline (CaCl2 replaced by NaCl), n = 6): did not induce ecdysone biosynthesis | EC50 (dose-response, cultured PGs of V7 larvae, 3 hours, LC-MS/MS, PTTH n = 10–38, read-out: EC50 (ecdysone biosynthesis, prothoracicotropic activity)): 0.108 nM | concentration of highest prothoracicotropic activity (dose-response, cultured PGs of V7 larvae, LC-MS/MS): 10^−9 M

Reference: paper PMC4114559, “Pigment Dispersing Factor Regulates Ecdysone Biosynthesis via Bombyx Neuropeptide G Protein Coupled Receptor-B2 in the Prothoracic Glands of Bombyx mori” (PLoS ONE, 2014)
